Measurements as given in US20160032292, “Aptamer-Guided Gene Targeting” (Georgia Tech Research Corporation, published 2016).

Assays:
[1] = molecular target: T1, I-SceI homing endonuclease (expressed in yeast from GAL1-10 promoter) (UniProt P03882 P03882:1-235); experiment: cell_activity; gene correction over C.TRP1.54; 55R5-3C
T1 sequence: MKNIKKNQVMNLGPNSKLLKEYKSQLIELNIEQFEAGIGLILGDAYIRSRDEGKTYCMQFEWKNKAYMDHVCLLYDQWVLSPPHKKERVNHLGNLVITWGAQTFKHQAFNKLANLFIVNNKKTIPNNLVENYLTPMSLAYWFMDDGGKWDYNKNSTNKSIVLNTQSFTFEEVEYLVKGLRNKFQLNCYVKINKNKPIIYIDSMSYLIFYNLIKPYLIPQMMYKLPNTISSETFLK
Description: (§1) Sequences of oligonucleotides used for repair can be found in Table 1. Cells from each transformation were diluted appropriately and plated to synthetic complete medium lacking the respective amino acid and containing 2% galactose for I-SceI induction, 2 or 0.2% galactose for HO induction or 2% glucose for I-SceI or HO repression. The exception to this is the experiment to determine the position of the aptamer in the targeting DNA sequence (at the 5′ or 3′ end). For this experiment, I-SceI was induced 3 h by addition of galactose (final concentration 2%) to the liquid YPLac medium before transformation by oligonucleotides, and cells were plated on selective media containing glucose. Viability after transformation was calculated by plating to glucose-containing synthetic complete medium. Viability after transformation for the I-SceI-containing strains was typically 20-40% both on glucose and galactose. […] The frequency of gene correction is based on the number of transformants relative to 10⁷ viable cells that formed a colony on galactose-containing synthetic complete medium (or glucose-containing synthetic complete medium depending on the transformation experiment). Yeast cell culture and standard molecular biology techniques were used as previously described […]

[2] = molecular target: T2, I-SceI homing endonuclease (UniProt P03882 P03882:1-235); experiment: EMSA; negative control; described as non-binding random control; 3 uM I-SceI, Mg2+, Zn2+, gel result not shown; conditions: tags: provided by F. Gimble (Purdue University), dialyzed; label: 5' 32P
T2 sequence: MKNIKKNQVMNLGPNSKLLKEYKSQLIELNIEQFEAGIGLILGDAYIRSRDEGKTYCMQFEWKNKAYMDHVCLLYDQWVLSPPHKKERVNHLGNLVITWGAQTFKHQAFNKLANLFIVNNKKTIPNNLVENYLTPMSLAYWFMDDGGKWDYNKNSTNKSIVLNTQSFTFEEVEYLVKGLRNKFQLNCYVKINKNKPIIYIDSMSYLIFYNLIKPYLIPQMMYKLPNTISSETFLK
Description: The internal region was chosen using a random DNA sequence generator with a specified GC content of 50% (http://www.faculty.ucr.edu/˜mmaduro/random.htm). I-SceI was dialyzed before running the EMSA gels in Run Buffer 1 (RB1), 50 mM Tris-HCl at pH 8.2, as previously described. Bovine serum albumin (BSA) was purchased as a lyophilized powder through Sigma-Aldrich (St. Louis, Mo.) and was greater than 98% pure. BSA stock of 10 mg/ml was made in RB1 buffer.
The buffer conditions used for binding had several components described previously (22). Each reaction consisted of 2 μL 5×EMSA buffer 1 (100 mM Tris-HCl at pH 8.5, 250 mM NaCl, 10 μM ZnCl₂, 10 mM MgCl₂, 10% glycerol), 1 μL BSA (10 mg/ml), 1 μL freshly prepared 20 mM DTT, and 1 μL 100 mM MgCl₂ for a final buffer concentration of 20 mM Tris-HCl, 50 mM NaCl, 2 μM ZnCl₂, […], 1 mg/ml BSA, […], and 2% glycerol. After mixing these components together, 2 μL of dialyzed I-SceI (total of 3 μM) for each reaction was added, bringing the volume to […]. The radiolabeling of the oligonucleotides had varying efficiencies such that the counts per minute (cpm) measurement of the radioactivity for each labeled oligonucleotide was different. […] The radioactivity in the gel was analyzed by Phosphor Imager (Molecular Dynamics—Typhoon Trio Imager™, GE Healthcare Life Sciences, Pittsburgh, Pa.). […]

[3] = molecular target: T1, I-SceI homing endonuclease (expressed …); experiment: cell_activity; gene correction over non-binding C.TRP5.54 (62500 vs 8950 per 1e7 cells); galactose; conditions: aptamer hairpin at 5' end (predicted)
Description: For this experiment, I-SceI was induced 3 h by addition of galactose (final concentration 2%) to the liquid YPLac medium before transformation by oligonucleotides, and cells were plated on selective media containing glucose. Viability after transformation was calculated by plating to glucose-containing synthetic complete medium. Viability after transformation for the I-SceI-containing strains was typically 20-40% both on glucose and galactose. […] The frequency of gene correction is based on the number of transformants relative to 10⁷ viable cells that formed a colony on galactose-containing synthetic complete medium (or glucose-containing synthetic complete medium depending on the transformation experiment). Yeast cell culture and standard molecular biology techniques were used as previously described
Therefore, we removed the primer regions surrounding the I-Sce I aptamer sequence in the bifunctional oligonucleotides, and this also allowed us to extend the sequence length of the gene-correction donor part of the bifunctional molecule. Oligonucleotides that contained the aptamer sequences from A4 or A7 at the 5′ end of a DNA sequence containing 54 bases of homology to restore the disrupted trp5 gene (A4.TRP5.54 and A7.TRP5.54, Table 1) were tested in yeast strains FRO-155/156 and FRO-526/527 (T5B and T5 in FIG. 1) for their capacity to restore the functionality of the trp5 gene. […]

[4] = molecular target: T2, I-SceI homing endonuclease; experiment: capillary electrophoresis with LIF; binding affinity about 3.16 uM; 50 nM A7, 1 uM I-SceI (FIG. 9D); binding also seen by EMSA; conditions: tags: provided by F. Gimble (Purdue University), dialyzed; label: 5' FAM; hairpin with 4-nt loop (mfold prediction)
Description: (§2) The protocol for SELEX using capillary electrophoresis (CE) was essentially as described earlier (Berezovski, et al., Nat. Protoc., 1:1359-1369 (2006)), but with a few modifications. Initial calibrations were done with a serial dilution of the aptamer library in RB1. The free DNA run time with 100 nM of the library was determined (FIG. 8A). […] CE was done using a Beckman Coulter (Atlanta, Ga., USA) P/ACE MDQ with laser-induced fluorescence (LIF) detection. The LIF was composed of a 488-nm air-cooled argon ion laser along with an on-board detector. CE runs were carried out with a voltage of 10 kV. The first round of selection began after determination of the collection window based on the bulk affinity analysis. For the initial round of in vitro selection, the DNA library (5 μl at 200 μM) was mixed with 5 μl of selection buffer 3 (SB3) (100 mM Tris-HCl at pH 8.2, 200 mM NaCl and 10 mM MgCl₂) for a final concentration of 100 μM DNA library, 50 mM Tris-HCl at pH 8.2, 100 mM NaCl and 5 mM MgCl₂. This mixture was heated in the BioRad iCycler™ to 94° C. for 1 min, and then cooled to 20° C. at a rate of 0.5° C./s. After the folding of the DNA library, 5 μl of 200 nM I-SceI dissolved in selection buffer 1 (SB1) (50 mM Tris-HCl at pH 8.2, 100 mM NaCl and 5 mM MgCl₂) was added to 5 μl of the DNA-SB3 mixture to make the final volume to 10 μl. […]

[5] = molecular target: T1, I-SceI homing endonuclease (expressed …); experiment: cell_activity; gene correction over C.LEU2.54; BY4742 and 55R5-3C
Description: as §1

[6] = molecular target: T2, I-SceI homing endonuclease; experiment: capillary electrophoresis with LIF; binding affinity about 52.49 uM; binding also seen by EMSA; conditions: tags: provided by F. Gimble (Purdue University), dialyzed; label: FAM
Description: as §2

[7] = molecular target: T1, I-SceI homing endonuclease (expressed …); experiment: cell_activity; gene correction over C.ADE2.54; BY4742 and 55R5-3C
Description: as §1

[8] = molecular target: T1, I-SceI homing endonuclease (expressed …); experiment: cell_activity; gene correction over C.TRP5.40 (202 vs 13.9); 32-fold with PAGE-purified oligos

B1: A7.TRP1.54 (ssDNA)
DNA: GCGGGCGCTGTTGACAGCGGTCAGGTGGATGGGATGGTGGCAAGAATACCAAGAGTTCCTCGGTTTGCCAGTTATTAAAAGACTCGTATT
B1 was tested, and the activity [1] was 2.5 fold.

B2: P1-r-P2 (ssDNA)
DNA: CTTCTGCCCGCCTCCTTCCGGTCGGGCACACCTGTCATACCCAATCTCGAGGCCAGACGAGATAGGCGGACACT
B2: no binding [2].

B3: A7.TRP5.54 (ssDNA)
DNA: GCGGGCGCTGTTGACAGCGGTCAGGTGGATGGGATGGGAAAAGGGTTTTGATGAAGCTGTCGCGGATCCCACATTCTGGGAAGACTTCAA
B3 showed an activity [3] of 7 fold.

B4: A7 (ssDNA)
DNA: GCGGGCGCTGTTGACAGCGGTCAGGTGGATGGGATG
For B4, the Kd [4] was 3.16 µM.

B5: A7.LEU2.54 (ssDNA)
DNA: GCGGGCGCTGTTGACAGCGGTCAGGTGGATGGGATGCGCTTTCATGGCCCTACAACATGAGCCACCATTGCCTATTTGGTCCTTGGATAA
B5 showed an activity [5] of 2 fold.

B6: A4 (ssDNA)
DNA: TGAAGGCCAAAACGGCTGAATCGATAGT
With B6 the Kd [6] was 52.5 µM.

B7: A7.ADE2.54 (ssDNA)
DNA: GCGGGCGCTGTTGACAGCGGTCAGGTGGATGGGATGGGACATTATACCATTGATGCTTGCGTCACTTCTCAATTTGAAGCTCATTTGAGA
B7 gave an activity [7] of 3 fold.

B8: A7.TRP5.40 (ssDNA)
DNA: GCGGGCGCTGTTGACAGCGGTCAGGTGGATGGGATGGGTTTTGATGAAGCTGTCGCGGATCCCACATTCTGGGAAG
B8 gave an activity [8] of 15 fold.
